Source: US20030050242A1, “Protein polymerization inhibitors and methods of use” (priority 1999, published 2003)
Ends that are not written are not given here. Peptide text beside a SMILES is read from it.

What was measured:
[1] = system: HIV-1; conditions: 100 μM; Experiment 6
Protocol: The HUT cells were resuspended in 1 ml of RPMI 1640 medium supplemented with 10% (v/v) heat-inactivated fetal bovine serum (FBS, GIBCO), penicillin (100 u/ml), streptomycin (100 u/ml) and Polybrene (Sigma, 2 μg/ml) with or without the presence of the different small peptides (100 μM) mentioned above. Thereafter, the HIV-1 virus was added at 25 TCID50 in a volume of 20 μl. Cells were incubated with the virus at 37° C. for one hour and, subsequently, the cells were pelleted at 170× g for seven minutes. The cells were then washed three times in RPMI medium without peptides at room temperature by cell sedimentation at 170× g for seven minutes, as above. After the final wash, the cells were resuspended in RPMI culture medium in 24-well plate (Costar corporation) and were kept at 37° C. in 5% CO2 with humidity. Culture supernatants were collected when medium was changed at day 4, 7, and 11 post infection and viral p24 production was monitored by using an HIV-1 p24 ELISA kit (Abbott Laboratories, North Chicago, USA).

[2] = system: HIV-1; conditions: summary of Experiments 1-6
Protocol: Next, the ability of peptide agents to inhibit viral infection was evaluated. Accordingly, the peptide agents listed in Table 1 were used in several viral (e.g., HIV-1, HIV-2, and SIV) infection assays. […] Once inhibitory tripeptides were identified, more specific assays were conducted to determine the effect of varying concentrations of the selected tripeptides and combination treatments (e.g., the use of more than one modified tripeptide in combination).

[3] = system: HIV-1 SF-2 virus; test: electron microscopy of HIV-1 particles from infected HUT78 cells; type: cell-based; conditions: 0.5 μM control sample; cells fixed day 14
Protocol: Evidence that peptide agents inhibit or prevent viral capsid protein polymerization and, thus, proper nucleocapsid assembly was obtained by performing electron microscopy on HIV-1 particles that were contacted with a modified small peptide. In this set of experiments, HUT78 cells were infected with HIV-1 SF-2 virus at 300TCID50 for 1 hr at 37° C. Subsequently, the infected cells were washed and pelleted 3 times. […] GPG-NH2 was then added into the cell cultures 3, 5 or 7 days post infection at concentration of 1 μm or 10 μM. A control sample was administered 0.5 μM Ritonavir (a protease inhibitor). The cells were cultured until day 14, at which point, the cells were fixed in 2.5% glutaraldehyde by conventional means. The fixed cells were then post-fixed in 1% OSO4 and were dehydrated, embedded with epoxy resins, and the blocks were allowed to polymerize. Epon sections of virus infected cells were made approximately 60-80 nm thin in order to accommodate the width of the nucleocapsid. The sections were mounted to grids stained with 1.0% uranyl acetate and were analyzed in a Zeiss CEM 902 microscope at an accelerating voltage of 80 kV. The microscope was equipped with a spectrometer to improve image quality and a liquid nitrogen cooling trap was used to reduce beam damage. The grids having sections of control and GPG-NH2 incubated cells were examined in several blind studies.
(See FIG. 1). […]

[4] = biological target: major capsid protein (p24) of HIV-1 (HIV-1) (UniProt P04591)
[5] = biological target: viral capsid protein (p24) of SIV (SIV)
[6] = biological target: viral capsid protein (p24) of HIV-2 (HIV-2)
[7] = biological target: T1, major capsid protein (p24) of HIV-1 (HIV-1, UniProt P04591); test: cell-based or functional assay
[8] = biological target: T1, major capsid protein (p24) of HIV-1; test: cell-based or functional assay; remark: listed apart in the source

## CC(C)[C@H](NC(=O)CN)C(=O)NCC(N)=O [GVG-NH2, glycyl-valyl-glycine amide] (H-Gly-Val-Gly-NH2)
[1]
  inhibiting or preventing HIV-1 infection, in words: less effective
[2]
  effect on HIV-1 infection, in words: inhibited and/or prevented HIV-1 infection

## NCCCC[C@H](N)C(=O)N[C@@H](CCC(N)=O)C(=O)NCC(N)=O [KQG-NH2, lysyl-glutaminyl-glycine amide] (H-Lys-Gln-Gly-NH2)
[1]
  reduction of virus, capsid protein p24 in the supernatant: ~100%
[2]
  effect on HIV-1 infection, in words: inhibited and/or prevented HIV-1 infection

## CC(C)C[C@H](NC(=O)[C@@H](N)CO)C(=O)NCC(N)=O [SLG-NH2, seryl-leucyl-glycine amide] (H-Ser-Leu-Gly-NH2)
[1]
  reduction of virus, capsid protein p24 in the supernatant: ~100%
[2]
  effect on HIV-1 infection, in words: inhibited and/or prevented HIV-1 infection

## CC(C)c1nc(CN(C)C(=O)N[C@H](C(=O)N[C@@H](Cc2ccccc2)C[C@H](O)[C@H](Cc2ccccc2)NC(=O)OCc2cncs2)C(C)C)cs1 [Ritonavir, reference compound]
[3]
  capsid/nucleocapsid morphology of HIV-1 particles: malformed structures that did not have a discernable nucleocapsid

## GKG-NH2 + CQG-NH2 (pool or library)
[4]
  reverse transcriptase (RT) activity in the supernatants, Day 10 RT (OD): 1.89 OD
[5]
  reverse transcriptase (RT) activity in the supernatants, Day 10 RT (OD): 2.89 OD
[6]
  reverse transcriptase (RT) activity in the supernatants, Day 10 RT (OD): 2.8 OD

## CC(C)C[C@H](NC(=O)[C@H](C)N)C(=O)NCC(N)=O [ALG-NH2, alanyl-leucyl-glycine amide] (H-Ala-Leu-Gly-NH2)
[1]
  reduction of virus, capsid protein p24 in the supernatant: ~100%
[2]
  effect on HIV-1 infection, in words: inhibited and/or prevented HIV-1 infection

## C[C@H](N)C(=O)N[C@@H](CO)C(=O)NCC(N)=O [ASG-NH2, alanyl-seryl-glycine amide] (H-Ala-Ser-Gly-NH2)
[1]
  inhibiting or preventing HIV-1 infection, in words: less effective
[2]
  effect on HIV-1 infection, in words: inhibited and/or prevented HIV-1 infection

## N=C(N)NCCC[C@H](N)C(=O)N[C@@H](CCC(N)=O)C(=O)NCC(N)=O [RQG-NH2, arginyl-glutaminyl-glycine amide] (H-Arg-Gln-Gly-NH2)
[1]
  reduction of virus, capsid protein p24 in the supernatant: ~100%
[2]
  effect on HIV-1 infection, in words: inhibited and/or prevented HIV-1 infection

## CC(C)[C@H](N)C(=O)NCC(=O)NCC(N)=O [VGG-NH2, valyl-glycyl-glycine amide] (H-Val-Gly-Gly-NH2)
[1]
  inhibiting or preventing HIV-1 infection, in words: less effective
[2]
  effect on HIV-1 infection, in words: inhibited and/or prevented HIV-1 infection

## GPG-NH2 + CQG-NH2 (pool or library)
[4]
  reverse transcriptase (RT) activity in the supernatants, Day 10 RT (OD): 0.397 OD
[5]
  reverse transcriptase (RT) activity in the supernatants, Day 10 RT (OD): 0.91 OD
[6]
  reverse transcriptase (RT) activity in the supernatants, Day 10 RT (OD): 1.17 OD

## GPG-NH2 + GKG-NH2 (pool or library)
[4]
  reverse transcriptase (RT) activity in the supernatants, Day 10 RT (OD): 0.164 OD
[5]
  reverse transcriptase (RT) activity in the supernatants, Day 10 RT (OD): 0.309 OD
[6]
  reverse transcriptase (RT) activity in the supernatants, Day 10 RT (OD): 1.11 OD

## C[C@@H](O)[C@H](NC(=O)[C@@H]1CCCN1C(=O)[C@@H](N)CO)C(N)=O [SPT-NH2, seryl-prolyl-threonine amide] (H-Ser-Pro-Thr-NH2)
[1]
  inhibiting or preventing HIV-1 infection, in words: less effective
[2]
  effect on HIV-1 infection, in words: inhibited and/or prevented HIV-1 infection

B1: Arg-Gln-Gly-NH2 (peptide)
peptide: Arg-Gln-Gly-NH2
[7]
  p24 production of infected HUT78 cells (HIV-1 p24 ELISA), Day 7 HIV-1, reduction (%), peptide at 100 µM: 99%

B2: GAT-NH2 (peptide)
peptide: Gly-Ala-Thr-NH2
[8]
  reverse transcriptase (RT) activity in the supernatants, Day 10 RT (OD): 1.56 OD

B3: HKA-NH2 (peptide)
peptide: His-Lys-Ala-NH2
[8]
  reverse transcriptase (RT) activity in the supernatants, Day 10 RT (OD): 2.55 OD

B4: Lys-Gln-Gly-NH2 (peptide)
peptide: Lys-Gln-Gly-NH2
[7]
  p24 production of infected HUT78 cells (HIV-1 p24 ELISA), Day 7 HIV-1, reduction (%), peptide at 100 µM: 99%

B5: Ala-Ser-Gly-NH2 (peptide)
peptide: Ala-Ser-Gly-NH2
[7]
  p24 production of infected HUT78 cells (HIV-1 p24 ELISA), Day 7 HIV-1, reduction (%), peptide at 100 µM: 25%

B6: Ser-Leu-Gly-NH2 (peptide)
peptide: Ser-Leu-Gly-NH2
[7]
  p24 production of infected HUT78 cells (HIV-1 p24 ELISA), Day 7 HIV-1, reduction (%), peptide at 100 µM: 99%

B7: Val-Gly-Gly-NH2 (peptide)
peptide: Val-Gly-Gly-NH2
[7]
  p24 production of infected HUT78 cells (HIV-1 p24 ELISA), Day 7 HIV-1, reduction (%), peptide at 100 µM: 50%

B8: Ala-Leu-Gly-NH2 (peptide)
peptide: Ala-Leu-Gly-NH2
[7]
  p24 production of infected HUT78 cells (HIV-1 p24 ELISA), Day 7 HIV-1, reduction (%), peptide at 100 µM: 100%

B9: ACQ-NH2 (peptide)
peptide: Ala-Cys-Gln-NH2
[8]
  reverse transcriptase (RT) activity in the supernatants, Day 10 RT (OD): 0.904 OD

B10: KAL-NH2 (peptide)
peptide: Lys-Ala-Leu-NH2
[8]
  reverse transcriptase (RT) activity in the supernatants, Day 10 RT (OD): 2 OD

B11: ARV-NH2 (peptide)
peptide: Ala-Arg-Val-NH2
[8]
  reverse transcriptase (RT) activity in the supernatants, Day 10 RT (OD): 1.53 OD

B12: Cys-Gln-Gly-NH2 (peptide)
peptide: Cys-Gln-Gly-NH2
[8]
  reverse transcriptase (RT) activity in the supernatants, Day 10 RT (OD): 0.108 OD

B13: KAR-NH2 (peptide)
peptide: Lys-Ala-Arg-NH2
[8]
  reverse transcriptase (RT) activity in the supernatants, Day 10 RT (OD): 2.78 OD

B14: Gly-Val-Gly-NH2 (peptide)
peptide: Gly-Val-Gly-NH2
[7]
  p24 production of infected HUT78 cells (HIV-1 p24 ELISA), Day 7 HIV-1, reduction (%), peptide at 100 µM: 25%

B15: Ser-Pro-Thr-NH2 (peptide)
peptide: Ser-Pro-Thr-NH2
[7]
  p24 production of infected HUT78 cells (HIV-1 p24 ELISA), Day 7 HIV-1, reduction (%), peptide at 100 µM: 25%
